Molecular target: the molecule itself
Assay: SEC

B1: recombinant FOG-3 (sizing column, Figure S2A) (domain or fragment)
chain: MYTEVRELVNFVCRYLFGHIPRRPVGIFGAELGNYLVSHFSSTWDVHHPKNGEMKRMINTTTSLCFASSAEEAGVPPSDVLRLLPTNMIIFANPGHVFVRLSENGIETPIWIGDVNCDENYQSVPEYVVRTAAIRAE
stoichiometry N: 2

Source: paper PMC6066285 (Cell reports, 2018)
